Assay: soluble on expression in E. coli; label from the status in PepcDB or PDB records

| Sequence | soluble on expression in E. coli |
| --- | --- |
| MTKVYIENYGCARNRADGEIMAGLLLSSGYEIVEGEENADIVVVNSCAVKDPTEVKIARRIRELLDRGKKVIVTGCLPHVNPDAIDERVSAVLGVKSIDRIVQAVEYALRGEKLISVPDWRKRNLDKLDFPRLSPRGVHFILPIAEGCLNGCTYCATRSARGVLKSYSPEKIVEWVKWAIRQGYKEIWLSAEDTGCYGFDIGTNLAKLLDEITAIEGEFRIRVGMMNPNHVLKFLDELIEAYKDEKVYKFLHLPVQSGDNEILRRMGRTYTVEEFEEIVNAFRREFPDLNLHTDIIVGFPGESEEAFQRSLELIKRIKPDKVNVSRYSPRPGTIAAKWKQLPGWVVKERSRIMHRVRLQISYEINQRYVGRKVDILVHGEGKKGNVDAVTMNYKHIIIPRGEKGEFARAKVNGATSTYLLGEIVD | soluble |
| MTKYRLSEEPRAFTYQVDGEKKSVLLRQVIAVTDFNDVKAGTSGGWVDAGNVLSQQGDCWIYDENAMAFAGTEITGNARITQPCSLYNNVRIGDNVWIDRSDISDGARISDNVTIQSSSVRGECAIYGDARVLNQSEILAVQGLTHEHAQILQIYDRATVNHSRIVHQVQLYGDATITLAFIEHRAEVFDFALIEGNKDNNVWICDCAKVYGHARVIAGTEEDAIPTLRYSSQVAEHALIEGNCVLKHHVLVGGHAEIRGGPILLDDRVLIEGQACIQGEILIEHQVEISGRATVIAFDGNTIHLRGPKVINGEDRITRTPLVGSLLEHHHHHH | soluble |
| MTLAATLREADLFRSLPKGFVQCRACAHYCALPEGGAGKCGVRRNLGGRLYLVTYGKAAALHLDPVEKKPLYHFHPGEGILSVGTVGCNLFCAFCQNWQISQFREFRVSPEGRLDRPIGEDWPPKRLVAEAEALGVRLLAYTYNEPAVWIEYAHDTARLAKARGMKNVFVTSGFETKEAWDYIRPHLDAANVDLKGFTEKFYREVCGARLKPVLESLGHLVASGVWVEVTTLLLEGYNDSDEEVRAMARFLKGLSPDIPWHLTAAHPDYRMLDLRSTRHATLVRAHAIAKEEGLRFVYVGNVLDEERNSTYCPNCGRLLVRRRGYRVEALWEAPGVCPGCGQRIPGVWTW | soluble |
| MTLKLTYFDIHGLAEPIRLLLADKQVAYEDHRVTYEQWADIKPKMIFGQVPCLLSGDEEIVQSGAIIRHLARLNGLNGSNETETTFIDMFYEGLRDLHTKYTTMIYRNYEDGKAPYIKDVLPGELARLEKLFHTYKNGEHYVIGDKESYADYVLFEELDIHLILTPNALDGVPALKKFHERFAERPNIKAYLNKRAAINPPVNGNGKQ | not soluble |
| MTLMKKFYVTTPIYYVNDVPHLGHAYTTIAADTIARYYRLRDYDVFFLTGTDEHGLKIQKKAEELGISPKELVDRNAERFKKLWEFLKIEYTKFIRTTDPYHVKFVQKVFEECYKRGDIYLGEYEGWYCVGCEEFKSEAELAEDHTCPIHQKKCEYIKEPSYFFRLSKYQDKLLELYEKNPEFIQPDYRRNEIISFVKQGLKDLSVTRPRSRVKWGIPVPFDPEHTIYVWFDALFNYISALEDKVEIYWPADLHLVGKDILRFHTVYWPAFLMSLGYELPKKVFAHGWWTVEGKKMSKTLGNVVDPYEVVQEYGLDEVRYFLLREVPFGQDGDFSKKAILNRINGELANEIGNLYSRVVNMAHKFLGGEVSGARDEEYAKIAQESIKNYENYMEKVNFYKAIEEILKFTSYLNKYVDEKQPWALNKERKKEELQKVLYALVDGLFVLTHLLYPITPNKMKEALQMLGEKEFLKELKPYSKNTYKLGERKILFPKREG | soluble |
| MTLPRLILPLLIAAACALGGCAYNPDLGRDQLLIVNDNNLARDGEKAWADALRTSHVSKEPRKNARVQAVGQRVIVAAGLAGRPWEYAVFLEEAPNAFVLPGGYVGVTVGLLSLVENDDQLAAVIGHEAGHVVARHAAERVSQETTSKVLLGIAKAAAGGTEFGKLLKDHGEDATRYGLLLPFSRKQELEADKLGVDFMQRAGYRPREAVKLWRNMQALDGGKSGGDLGSTHPSDAVRIQELERYLASKGWLEHHHHHH | not soluble |
| MTLTPEASKSVAQPPTQAPLTQEEAIASLGRYGYGWADSDVAGANAQRGLSEAVVRDISAKKNEPDWMLQSRLKALRIFDRKPIPKWGSNLDGIDFDNIKYFVRSTEKQAASWDDLPEDIRNTYDRLGIPEAEKQRLVAGVAAQYESEVVYHQIREDLEAQGVIFLDTDTGLREHPDIFKEYFGTVIPAGDNKFSALNTAVWSGGSFIYVPPGVHVDIPLQAYFRINTENMGQFERTLIIADEGSYVHYVEGCLPAGELITTADGDLRPIESIRVGDFVTGHDGRPHRVTAVQVRDLDGELFTFTPMSPANAFSVTAEHPLLAIPRDEVRVMRKERNGWKAEVNSTKLRSAEPRWIAAKDVAEGDFLIYPKPKPIPHRTVLPLEFARLAGYYLAEGHACLTNGCESLIFSFHSDEFEYVEDVRQACKSLYEKSGSVLIEEHKHSARVTVYTKAGYAAMRDNVGIGSSNKKLSDLLMRQDETFLRELVDAYVNGDGNVTRRNGAVWKRVHTTSRLWAFQLQSILARLGHYATVELRRPGGPGVIMGRNVVRKDIYQVQWTEGGRGPKQARDCGDYFAVPIKKRAVREAHEPVYNLDVENPDSYLAYGFAVHNCTAPIYKSDSLHSAVVEIIVKPHARVRYTTIQNWSNNVYNLVTKRARAEAGATMEWIDGNIGSKVTMKYPAVWMTGEHAKGEVLSVAFAGEDQHQDTGAKMLHLAPNTSSNIVSKSVARGGGRTSYRGLVQVNKGAHGSRSSVKCDALLVDTVSRSDTYPYVDIREDDVTMGHEATVSKVSENQLFYLMSRGLTEDEAMAMVVRGFVEPIAKELPMEYALELNRLIELQMEGAVG | not soluble |
| MTNDLADIKLYDQNPDEAAIERLHHRLALVMKNQDASLVATSDPKELERVEKWVQDVLGADEQSAKRGVSKVADMMSGDRRKSRMTFYYLVAKQLNALHKI | not soluble |
| MTNIEERINQIIQVLREQVVQDTAVPRNIRRAAEQAIEALQNKEKEPAVRAADAIAILEEISEDPNMPLHTRTIIWEVLGALEQIK | not soluble |
| MTNKDIYKNNPLHGTSLETVLTTLVDHYGFEILAAYMNLNCFKQNASIESSLKFLKKTQWAQEKVEAFYMYQYNSLPKADDANFELPPRDRIVPSGLEQRPPKELSLDDAEELRIKQAKKTRERAAAATSANPWGSRLEHHHHHH | not soluble |
| MTPAIDAHVRLDTHPTHPSAVQAHLTGTQARVASMALEAAGWSAAATGVLVLARIDHEEPYWAADAAQHLTAAGITVEITPRLQEAIDEEWTWPNYPMTWCTRSEIREVSNQAQKIHDDIRNGHLLIHAHAHDGHTTVAVGTYLHPGGKSVYLHGEDHLRQVADTFDSPAEALVAFEKVHAAEMRPGPAPLTDTERAAIAARSVFDATTAKPEPPRREPEAVPVYLADAGDHDALLDSFLDTHGEFEKWRTWSDETTHAIHESQTLRIERVHETQARETAWTVAAYETPVSDRMWHLTATDATPAPVLLNLLNHLADGDGWDTVIGVPVGEKTVTTATQPLTEAGWKHTLTGHGIRWTSPDGQASVRFDPLTAQAPQNPATWTIWAGPGPDRPTWAITASSHTPSSLLADLSESLAHETGTRQPRPGREHRTRLAASAPAIPAVTSDRPASRSRLEHHHHHH | soluble |
| MTPDPLAPLDLAFWNIESAEHPMHLGALGVFEADSPTAGALAADLLAARAPAVPGLRMRIRDTWQPPMALRRPFAFGGATREPDPRFDPLDHVRLHAPATDFHARAGRLMERPLERGRPPWEAHVLPGADGGSFAVLFKFHHALADGLRALTLAAGVLDPMDLPAPRPRPEQPPRGLLPDVRALPDRLRGALSDAGRALDIGAAAALSTLDVRSSPALTAASSGTRRTAGVSVDLDDVHHVRKTTGGTVNDVLIAVVAGALRRWLDERGDGSEGVAPRALIPVSRRRPRSAHPQGNRLSGYLMRLPVGDPDPLARLGTVRAAMDRNKDAGPGRGAGAVALLADHVPALGHRLGGPLVSGAARLWFDLLVTSVPLPSLGLRLGGHPLTEVYPLAPLARGHSLAVAVSTYRGRVHYGLLADAKAVPDLDRLAVAVAEEVETLLTACRPLEHHHHHH | soluble |
| MTPPADETRLFECVTCGGVGIGDNRPTCCGEPMAATETGDTAVSEPSLETLLKTVFDMSGTELDICLCVMEGGELTVAALAEQIGYDRSVVARHLNHLAAFGVVEKRRRIRPEGGHVYVYTPQPPEVVRERLREEFLSWVRLATAQLDDLQREKVEAIADAKTDERQWTVFQEQ | not soluble |

Reference: the DeepSol protein solubility set
